Laboratory results taken from patent publication US20050048594.

Key:
[1] = tested on: T1, peptide ARKRERAF(3-CF3)SFGHHA
T1 sequence: ARKRERAFSFGHHA

[2] = tested on: T2, CF3-CO N-capped-AKTide (CF3-CO-ARKRERAYSFGHHA)
T2 sequence: ARKRERAYSFGHHA

WtAKT1 recombinant protein (activated protein Ser/Thr kinase AKT1)
phosphorylation of the peptide followed by 19F NMR (25 nM AKT1) [1]: The peptide is a good substrate for AKT1 and trypsin
phosphorylation of the peptide followed by 19F NMR (time to complete conversion; 50 nM AKT1, 30 uM peptide, 131 uM ATP) [2]: The enzymatic reaction is complete after 149 minutes and only the signal of the phosphorylated peptide is visible in the spectrum
